{"source": "paper PMC6506517", "about": "“Structure of Mycobacterium tuberculosis phosphatidylinositol phosphate synthase reveals mechanism of substrate binding and metal catalysis” (Communications Biology, 2019)", "proteins": {"B1": {"name": "Mycobacterium tuberculosis phosphatidylinositol phosphate synthase (PgsA1) (enzyme)", "chain": "MSKLPFLSRAAFARITTPIARGLLRVGLTPDVVTILGTTASVAGALTLFPMGKLFAGACVVWFFVLFDMLDGAMARERGGGTRFGAVLDATCDRISDGAVFCGLLWWIAFHMRDRPLVIATLICLVTSQVISYIKARAEASGLRGDGGFIERPERLIIVLTGAGVSDFPFVPWPPALSVGMWLLAVASVITCVQRLHTVWTSPGAIDRMAIPGKGDRENLYFQ", "notes": "also called M. tuberculosis PgsA1; Rv2612c"}}, "molecular_target": "the molecule itself", "assay": "crystal structure", "data": [{"protein": "B1", "values": [{"measurement": "binding result", "value": "binds"}]}]}
